Laboratory results: the DeepSol protein solubility set

Experiment: soluble on expression in E. coli; label from the status in PepcDB or PDB records

Soluble on expression in E. coli, not soluble:
MGSDKIHHHHHHMHEHFMTPPPLSVTGKPAIRIGCAGWGIPPQHAALFPPGGGHLERYARLFDTVEIDSSFYRPHQHKTYVRWADTVPDSFRFWVKTPREITHQRRLLECEDSLLRFLEEISGLGYKLGGILVQLPPSLALDVPSAQAFFTLLRQHYAGVAACEPRHASWFSMQGEKLLQDFRLARVAADPAKFPTAGTPGGDTGFSYYRLHGAPEIYYSSYPEAYLRQLAHTLQASIGPAWCIFDNTARGGATANAWDIMRLLDKTMHQD, MGSDKIHHHHHHMSSYVVSQEDVKNFLNLPSMNDQEGISFAYATDPDALAKLIPAPLKLVAPVVCGYVVHMGKPSFGGPYLEQTLFALVSYKDKMMGSYPLTLLLHGPGAEAGLVAGREGAGIPKKLADHIELRRNDNSASATVERHGKTLLSVDWEAGDVNDPSILQTFGSQFALNKESEMNSFFFTHDLVQDKQGANHFENVELVATQMKSLADRVEPGKLSIQLASTEDDPFGELPVLKPLGAMWYHFATSTMFNTLHLEQVDADKTAPYLITGRYDRSMMNPLATTYII, MGSDKIHHHHHHMNYDDPKKKVGRNIKRLRLKAGIKSQAALAELCGWKSQSRVGNYEAGTRAVSAIDAETLAKVLNVTPAEILYGENNKDDDFVSMPSAQYSSGPYEEEDPFQLFKPKQELQNAEWHAGFELWDGDTPLRDDEVALPFYREVELAAGSGSTFVQENGGCKLRFAKSTLKKSRVEPSNAACVTVSGNSMLPVLRHGTTVGVDTSKKSIIDGEMYAIDHDGMLRVKMLYRTPGGGIRIKSYNNDEFPDEFIPPEKASDIKIIGWVFWWSVLNVWNN, MAASRDIFAPDFRRRPYWWEGYEPPECGEDTLPASADVAIVGGGYTGVCCALALREAGIEAVVLEAGRPGEGASTRSGGQVSGGVNVQKKALAAVGESAGQRAERLAARLRDAAASMAYVESLIERYAIECGWHRTGRLTTMWVPAHYQSWQARLDQLNACTGSQARMIPREELAAEIGSSVYHGAALIEHAGHLQPAQLYGGMLRAARDAGARVLGRTPVERIERRAGGYDVHTARGTVRAGQVVIATNGYTGANLGGLKRRIVPVCTHMITTEALPPDLAASLLPTNRAVSESRRVVNHYRLSPDGRRLLFGGRARFVPTDEATTARLLYRAMLKRFPQLAGTRITHSWGGNVAMTLDSMPHIGGADGLHYALGCNGSGVAMMSYLGHCVGRKIATQSGEPINAFDMGEIPGHPFYFGNPWFLFAIGSWYQARDAYDHWRARLEHHHHHH, MTFEDLHEYLDYLAKKNDLVTITEEVDPNLDLTYILSEEERMGRGRTILFKNVKGSQVPAVGNLFSTNEKLKAVLGDDPYSIGVKIADIVKPPRDSESFIGKGLEMMRELSGLRPKVSNSIPSGYSELEKVDLYRYPICKTWPDDGGPFITLPLVITKDPSTGIRNMGMYRMQVYDSETTGMHWHIHKGGSENFLKEKEKGKAMDVAVVIGSDPLTIFSAVAPLPNGIDEFMFRGLISRKRSELVKGKTVDLEYPRNFEIVLEGYIDPSETRVEGPFGDHTGYYSLEEEFPVFHVKNIIERNDRIYPTTIVGKLWHEDVVLGKAVERMFLPLIQMVLPEVVDINTMEEAVFHNMVIVSIKKRYPGHAKKVMFALWGLGQLMFSKIIVVVDDDINIHNRKELIWAMTTRIDPDRDVIIIPGTVTDSLDHAAPLFNYGSKMGIDATKKDKSEGYTRRWPDVLEMPKDVVDKVRQIMKNNRLIQLEHHHHHH, DNPINIAVPGVAQQNVSATINNGTLTRRGNLWIARPTKVGSEAIISVTAQSGGRTIQMAKTTLRVRALPDPLPYIEYKDVQGNTKRFKGGRLGKREILAAGGIKAALDDDLLEVNYTVVKFQLVFYDSMGNSIPEVSDGASFSERQKRQIQNLGKGKRFYVTEVIARGPDGIERKIPAIEVIVN, MESTLQIMPVQRTSRNFGEYAEEAVIIEEPIIKQKRPLFIEANTIEASLEHLRNDCIIPVFAKDNEATLSHVAFIEAVQDATNTFFSGEQIESPDIRVSHVIKGRIPEAIHKPANQLLESDKTIYYERCAFVIEVPTIYETVHGNRLTLTIGGVRAYNHTNLYSKKGAERFKVFIGFTCKVCTNLCVSTDGYLSCLEVTNTRDLYQAVLEMFHKYDAAKHIHLMQSLGNTSMTEHQFCQLLGRMRLYQSLPQGYQKDIPKMLLTDTQVNNVARAYINDENFGSLGNDLSMWKLYNLLTGANKSSYIDSFLDRAYNATELATGICSALHGDNKYQWFLS, MGSDKIHHHHHHMKIAVTGKGGVGKSTIVGMLARALSDEGWRVMAIDADPDANLASAIGVPAERLSALLPISKMTGLARERTGASETTGTHFILNPRVDDIPEQFCVDHAGIKLLLMGTVNHAGSGCVCPEHALVRTLLRHILTKRKECVLIDMEAGIEHFGRGTIEAVDLLVIVIEPGSRSLQTAAQIEGLARDLGIKTICHIANKLASPVDVGFILDRADQFDLLGSIPFDSAIQAADQAGLSCYDLSPACRDKAHALMAALLERVGPTQGVS, MGSDKIHHHHHHMTAPFSTQLKRCTTCLLPETHETLVLDSEGVCNICRAQEVKAEINWEERLVHLDKLVAEYRGNYRYDCLIPFSGGKDSTWTLYYLMNRYPGIKPLVVRFNHGFLRPNLRANCDRVFRKLGVDVHDFSPSWKVVQRLMLQSFLEKGDFCWHCHTGIFAYPMQVAIKEQVPLIFWGEPSAEYTAYYNYDQAEEVDEERFNRYVNLGISAEDMLVRLDGYLDERDVEPFRYPPLKELRQLGYRSVCLGSYIPWDVKMQVGKIREELGWKGDLVENVPEDFNYEKIECWMQGVRDYIKYIKRGYTRPTHLAAIDLRNNRISKEEAKAMITQFEGRRPPSLDLFLDYVGLDEEQFYTIAMGHQVSPWQFDPDSIKSGPKTPDFEDWLRGDGLDLVDAEDQLGRWADSCSSCSSSSSCSGG, MKSERILVVKTEDFLKEFGEFEGFMRVNFEDFLNFLDQYGFFRERDEAEYDETTKQVIPYVVIMDGDRVLITKRTTKQSEKRLHNLYSLGIGGHVREGDGATPREAFLKGLEREVNEEVDVSLRELEFLGLINSSTTEVSRVHLGALFLGRGKFFSVKEKDLFEWELIKLEELEKFSGVMEGWSKISAAVLLNLFLTQN

Soluble on expression in E. coli, soluble:
SQLPPGKPEIFKCRSPNKETFTCWWRPGTDGGLPTNYSLTYHREGETLMHECPDYITGGPNSCHFGKQYTSMWRTYIMMVNATNQMGSSFSDELYVDVTYIVQPDPPLELAVEVKQPEDRKPYLWIKWSPPTLIDLKTGWFTLLYEIRLKPEKAAEWEIHFAGQQTEFKILSLHPGQKYLVQVRCKPDHGYWSAWSPATFIQIPSDFTMND, SNAKVILYARVSSNTQKDDLANQVKYLEEQVKEYDLVITDIGSGLNMKRKGFLKLLRMILNNEVSRVITAYPDRLVRFGFEILEEVCKAHNCEIVVLNQEDKTPEEELVEDLATILVSFSGKLHGMRSQKYEKVKKCAEELKN, MEKLKEFRGIKEHLGVFREAVKDAERIGFAGVPGVCTPFAQLFAYAVRDKDNIFIPNTDFSKARKLEVTEYGVELGEISPGNVDVLVLLGGLSMPGIGSDIEDVKKLVEDALEEGGELMGLCYMDMFARAGWYELLDFDCVINADIDGYVLRG, AHHHHHHGSHFIKHFEEELIALSNAPHRGGLTKARGFFFMKVEKNYRGDYKKDCLEFERKNGLRSFVGFMTAVDIEKVMAIKSLGNVEVYLTAGISNPAIAGEEPKPWEPGTINMAIVIDEGLTIGAMANAIMTATEAKTYTLLKLGYNATGTTSDGIGVFARQGNVEWAGTATRLGFEIGKAVREALEESIKKWEKIKSL
